Bridge positions count the residues as written; N and C are the ends. Square brackets hold non-standard residues; d marks the D form. R8 = C=CCCCCCC[C@@](C)(N)C(=O)O; S5 = C=CCCC[C@](C)(N)C(=O)O
Target: T1, recombinant HDM2 17-125 (human, UniProt Q00987 17-125)
T1 construct: range 17-125
Test: fluorescence polarization competition: unlabeled peptide titrated against FITC-WT p53 14-29 (25 nM) bound to HDM2 17-125
Protocol: (§1) FIG. 12 Competition by fluorescence polarization. Fluoresceinated, wild type p53₁₄₋₂₉ (25 nM) was incubated with recombinant HDM2₁₇₋₁₂₅. Unlabeled SAH-p53s were titrated into the mixture, and displacement of the labeled ligand was measured by fluorescence polarization.
as §1, with “The ability of various SAH-p53s to compete with wild-type p53₁₄₋₂₉ for binding to HDM2₁₇₋₁₂₅ was assessed as follows.” for “FIG. 12 Competition by fluorescence polarization.”

B1: SAH-p53-4 (peptide)
peptide: Ac-LSQETF[R8]DLWKLL[S5]EN-NH2
modifications: staple 7-14
notes: the FITC-labeled form is m4; also called unlabeled SAH-p53-4; Ac-SAH-p53-4
- binding result: binds
